Experimental data as given in publication doi:10.1101/2021.04.22.440356 (bioRxiv, 2021).

Target: T1, yeast ubiquitin hydrolase 1 (YUH1) (S. cerevisiae, UniProt P35127 1-236)
T1 sequence (looked up): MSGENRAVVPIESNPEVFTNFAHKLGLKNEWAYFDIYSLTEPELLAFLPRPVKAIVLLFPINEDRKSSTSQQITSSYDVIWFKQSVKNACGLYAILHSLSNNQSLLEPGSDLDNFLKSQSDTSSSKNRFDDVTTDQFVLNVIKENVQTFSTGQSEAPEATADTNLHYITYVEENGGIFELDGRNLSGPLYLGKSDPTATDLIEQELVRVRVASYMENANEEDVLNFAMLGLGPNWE
Experiment: NMR 1H-15N TROSY spectra of the complex

B1: yeast ubiquitin (natural protein)
chain: not shown
modifications: 2H,15N-labelled
**Q.** Does B1 bind?
**A.** Result: binds
